From PMC5778463

Biological target: Influenza A polymerase heterotrimer (PA-PB1-PB2) (Influenza A virus A/little …, UniProt H6QM92;H6QM91;H6QM90 1-713;1-756;1-760)
Assay: crystal structure

Binder	binding result
AAUCUAUAAUAG (ssRNA, 5' m7Gppp cap) [capped 12-mer RNA primer]	binds
vRNA promoter (5' nt 1-16 / 3' nt 1-18) (structured_RNA, 5' phosphate on strand 1) RNA 1: AGUAGUAACAAGAGGG RNA 2: UAUACCUCUGCUUCUGCU	binds
